The source of these data is patent US20150273076A1, “SP1 POLYPEPTIDES, MODIFIED SP1 POLYPEPTIDES AND USES THEREOF” (Fulcrum SP Ltd., priority 2006, published 2015).

In brackets after ≈: the same amount, converted by molar mass.

Series [1] deals with Human colon adenocarcinoma (HT-29) cells. The experiment in a line: In-vitro cytotoxicity in HT-29 cells. Type of series: cell-based. The source says:
FIGS. 24a and 24b are graphs illustrating the in-vitro cytotoxic effects of SP1-DOX complex. FIG. 24a—HT-29 cells cultured in 96 well microtiter plates were exposed to uncomplexed DOX (closed oval, magenta) or SP1-DOX complex (closed triangle, blue) prepared as described in FIGS. 9-15, at the indicated concentrations. FIG. 24b—HT-29 cells were exposed to uncomplexed SP1 (without DOX) (closed diamond, blue) or SP1-DOX complex (closed triangle, yellow) at indicated concentrations. Proportion of living cells was determined by MTT assay, and the IC50 was calculated.
HT-29 cells were prepared as in FIG. 24 above.
Human colon adenocarcinoma (HT-29) cells. The cells were grown in 50-ml flasks containing DMEM medium (Biological Industries, Bet Haemek), supplemented with 10% fetal calf serum, 1% glutamine and 1% Antibiotic-Antimicotic solution (Biolab, Israel). The cells were trypsinizated, and 2 ml medium containing 5×10^4 cells were plated in each well of a 6-wells plate. SP1, drugs or SP1-complexed with drugs was added at the indicated concentrations. The cells were incubated at 37° C. in a humidified atmosphere containing 5% CO2.After 48 hours the medium in the presence or absence of drugs was replaced in each well respectively, to maintain a constant supply of ingredients and drugs. After four days the medium was removed and the number of viable cells in the cultures was determined by spectroscopy.
The human colorectal adenocarcinoma cell line, HT-29, was used to evaluate the biological activity of the SP1-DOX complex, compared to that of the free drug and un-complexed SP1 protein. […] Thus, the SP1-DOX complex is at least as biologically active as free DOX.

Series [2] is described as follows: Oligomeric complex formation by SDS PAGE (unboiled samples). The following applies: boiling and protease stability.
Description: SP1 (20 μg) was prepared in SDS sample buffer at different SP1-monomer: SDS molar ratios and boiled (or not) (5 mM) prior to SDS-PAGE analysis. Heat stability of SP1 oligomer (10 μg) was tested in the same buffer at SP1-monomer: SDS=1:1733 and heated for 1 to 10 mM at different temperatures.
Purified 6HSP1 and ΔNSP1 were first denatured to the monomeric forms by boiling the proteins in SDS sample buffer. The denatured proteins were then separated in preparative SDS-PAGE, and visualized by Coomassie blue staining. The monomeric forms of two recombinant protein bands were excised. Gel slices that carried monomeric form of 6HSP1 (SEQ ID NO:7) and ΔNSP1 (SEQ ID NO:2) were mixed at 1:1 ratio (v/v). In order to enhance the surface/volume ratio, the gel slices were pulverized using a pestle and mortar in the presence of liquid nitrogen. […] The hetero-oligomeric complex was isolated by subjecting the eluated protein to Ni-NTA Agarose beads and the bound proteins were eluted by 400 mM imidazole using a standard procedure (Sigma protocol for P 6611). […] The composition of hetero-oligomeric SP1 was determined by SDS-PAGE and visualized by silver staining.
The nature of series [3]: Heat stability (no precipitation after heat treatment). Particulars: 10 min at 100° C. or 30 min at 85° C.
Series [4] in a line: Doxorubicin complex formation and release (ultrafiltration, HPLC, SDS PAGE fluorescence). The format is binding. The following applies: reducing conditions (DTT or GSH). The protocol:
Pure wild type SP1 or Cys2 SP1 mutant (1.5 mg/ml in 20 mM Sodium Phosphate buffered, pH=6.8) were incubated overnight at room temp, with DOX 1 mg/ml in the presence of DTT (10 mM), with gentle rolling. Binding reaction was stopped by adding hydrogen peroxide (0.01%), followed by ultra filtration (using 30 kD cutoff filter) and extensive wash until follow-through become colorless. Optical density was measured at both 278 and 477 nm using nanodrop spectrophotometer. Note the dramatic effect of the reducing agent on drug binding by the Cys2 SP1, compared to the absence of effect on the wild type SP1.
FIG. 13 is a histogram illustrating the redox-dependent release of Doxorubicin by Cys2 SP1. Doxorubicin (DOX) was complexed within Cys2 SP1 as described in FIGS. 9-12 above. Release of the drug in the presence of 0, 2 and 20 mM GSH was measured by ultrafiltration and size exclusion HPLC analysis (detection at 228 and 475 nm);
FIG. 14 is a histogram illustrating the effect of oxidation on DOX complex formation by Cys2 SP1. Doxorubicin (DOX) was reacted with Cys2 SP1 and wild type SP1 as described in FIGS. 9-13 above. Oxidized protein indicates exposure to excess of H2O2 prior to treatment with GSH. DOX complex formation was measured by ultrafiltration and size exclusion HPLC analysis (detection at 228 and 475 nm). […] 1=the retentate; 2=the flow through; and 3=a DOX standard 20 μg/ml.
FIG. 17 is a photograph of a fluorescent PAGE analysis illustrating effective complex formation with DOX by Cys2 and SP1 fusion proteins. Recombinant wild type (lanes 1 and 2), Cys2 (lanes 3 and 4), and SP1 fusion proteins having additional N-terminal tumor specific peptide RGD (CRGD, SEQ ID NO:151; fusion protein is SEQ ID NO: 5)(lanes 5 and 6), or RGD in reverse order (RGDC, SEQ ID NO: 152; fusion protein is SEQ ID NO: 6)(lanes 7 and 8) were reacted with DOX to form complex as described in FIGS. 9-14 above, and then separated on SDS-PAGE with (lanes 2, 4, 6 and 8) or without (lanes 1, 3, 5 and 7) denaturation by boiling in LSB.
Ultrafiltration was used for the detection of complex formation with the water soluble ligands FA and DOX which have a distinctive absorption properties and can be determined by spectroscopic measurements. […] Several additional washing cycles remove all remaining free FA and DOX, and the ligand-SP1 complex remains in the retained fraction.
Size exclusion chromatography is a common method for separation of molecules of different sizes under mild conditions and was employed to test FA and DOX complex formation under mild conditions. SP1 is eluted from the column after 7 min and is detected at 278 nm only, and free FA is eluted from the column (TSK G3000 SWXL, Tosohaas) after 16 min and is detected at 490 nm. The SP1-FA and SP1-DOX complexes also eluted at the same time but is detected also at 490 and 475 nm, respectively. DOX/SP1 ratio is determine from the standard curve obtained in solution.
Reverse phase HPLC (RP-HPLC) analysis separates between free DOX, PXT, and SP1. Both compounds bind to the resin (C-18) and are eluted at different acetonitrile concentrations, and detected at both 278 and 225 nm (SP1), 225 nm (PTX) and 477 nm (DOX).
Pyrogen free Cys2 SP1 variant (SEQ ID NO:3) in 20 mM (Na Phosphate buffer pH-6.7) final 2 mg/ml was diluted with DOX solution (Teva, Israel) 1:2 dilution final 1 mg/ml. Where indicated, GSH was added, and the solution is mixed overnight. Where indicated (oxidized), H2O2 is added to 0.1%, buffer added to 3× volume, and the solution is sonicated (3×22 sec. 1:1 pulse/pause at 3% amplitude 0.5 min. pause, using a Vibra-Cell 750 W sonicator).

By IC50 is commonly meant the concentration that inhibits the measured activity by half. With `CC(=O)O[C@H]1C(=O)[C@@]2(C)[C@H]([C@H](OC(=O)c3ccccc3)[C@]3(O)C[C@H](OC(=O)[C@H](O)[C@@H](NC(=O)c4ccccc4)c4ccccc4)C(C)=C1C3(C)C)[C@]1(OC(C)=O)CO[C@@H]1C[C@@H]2O` [PTX, paclitaxel], in series [1] (Homo sapiens, HT-29 cells, dose inhibiting 50% of cell growth, read-out: IC50), the IC50 was about 0.01 µg/mL (≈ 0.0117 µM). The “biological activity after storage in aqueous solution” value in series [1] (at least 3 weeks storage in aqueous solution) is “becomes inactive”.

B1: CRGD2: SP1 fusion protein with N-terminal tumor specific peptide CRGD, SEQ ID NO:5 (protein)
chain: MCRGDATRTPKLVKHTLLTRFKDEITREQIDNYINDYTNLLDLIPSMKSFNWGTDLGMESAELNRGYTHAFESTFESKSGLQEYLDSAALAAFAEGFLPTLSQRLVIDYFLY
modifications: Sp1 mutant variant Cys, Arg, Gly and Asp inserted into position 2
As for B1, the “oligomeric complex formation, stability and resistance” value in series [2] was “formed a boiling stable and protease resistant dodecamer”; in series [2] (listed as CRGD SP1), “formed homo- and hetero-oligomeric complexes”. In series [3], the Heat stability result was “+”. In series [4], the DOX complex formation result is reported as “effective binding”.

B2: RGDC2: SP1 fusion protein with N-terminal peptide RGDC, SEQ ID NO:6 (protein)
chain: MRGDCATRTPKLVKHTLLTRFKDEITREQIDNYINDYTNLLDLIPSMKSFNWGTDLGMESAELNRGYTHAFESTFESKSGLQEYLDSAALAAFAEGFLPTLSQRLVIDYFLY
modifications: Sp1 mutant variant Arg, Gly, Asp and Cys inserted into position 2
As for B2, the “oligomeric complex formation, stability and resistance” value in series [2] is “formed a boiling stable and protease resistant dodecamer”; in series [2] (listed as RGDC SP1), “formed homo- and hetero-oligomeric complexes”. In series [3], the Heat stability result is given as “+”. In series [4], the DOX complex formation entry is given as “effective binding”.
